Holding throughout (conditions): one partner purified
Assay [1] concerns the target T1, endogenous Synaptotagmin 1 of mouse brain and mouse neurons (mouse (endogenous in brain and primary …, UniProt P46096)).
T1 construct: Synaptotagmin 1, mouse, endogenous whole protein (in brain extract for the immunoprecipitation, on living neurons for the uptake); also called endogenous Syt1; Syt1; source: endogenous, WT mouse brain lysate; endogenous, mouse primary neurons
The assay is described as follows: co-IP; immunoprecipitation: GFP-tagged nanobody pre-loaded on GFP Selector beads, incubated 1 h at 4 °C with pre-cleared lysate of WT or Syt1 KO mouse brain; blot with Syt1 cytoplasmic antibody.

Assay [2] has as its target T2, endogenous human Synaptotagmin 1 in human iPSC-derived hypothalamic-like neurons (human, UniProt P21579).
T2 construct: Synaptotagmin 1, human, endogenous; also called human Syt1; source: endogenous, human iPSC-derived hypothalamic neurons (living cells)
The assay is described as follows: immunostaining of cells or tissue; live uptake in 80-day old human iPSC-derived hypothalamic neurons: surface pool blocked with 4.85 µM unlabeled nanobody, then 5.5 µM pHluorin-labelled nanobody with 30 mM KCl or 1 µM TTX, 20 min at 37 °C; fixed, anti-GFP and anti-Syt1.

Assay [3] has as its target T3, endogenous Synaptotagmin 1 of primary hippocampal neurons (rat) (rat (endogenous in hippocampal neurons), UniProt P21707).
T3 construct: Synaptotagmin 1, endogenous in primary hippocampal neurons; the spectra were searched against the Rattus norvegicus proteome (UP000234681) and neurons were in most cases from Wistar pups; also called Syt1; Syt1-lum; source: endogenous, primary hippocampal neurons (living cells)
Nature of the assay: proximity labelling; NbLumSyt1-APEX2 taken up live by primary neurons (30 min with biotin-phenol), 1 mM H2O2 for 30 s; streptavidin bead enrichment, LC-MS/MS; controls NbALFA-APEX2 or no nanobody.

T3 sequence (P21707 whole entry): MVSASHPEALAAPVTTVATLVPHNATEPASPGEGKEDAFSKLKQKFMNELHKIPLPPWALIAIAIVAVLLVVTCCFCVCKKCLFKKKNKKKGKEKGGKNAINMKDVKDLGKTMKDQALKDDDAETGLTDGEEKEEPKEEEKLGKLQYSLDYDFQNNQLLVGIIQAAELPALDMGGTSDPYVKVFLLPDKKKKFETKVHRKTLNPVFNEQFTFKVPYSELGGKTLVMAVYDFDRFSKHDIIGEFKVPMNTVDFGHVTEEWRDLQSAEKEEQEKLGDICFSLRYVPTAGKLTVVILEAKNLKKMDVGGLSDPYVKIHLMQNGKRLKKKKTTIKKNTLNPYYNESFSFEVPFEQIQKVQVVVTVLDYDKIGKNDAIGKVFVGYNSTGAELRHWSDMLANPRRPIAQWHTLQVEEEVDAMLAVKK
T2 sequence (P21579 whole entry): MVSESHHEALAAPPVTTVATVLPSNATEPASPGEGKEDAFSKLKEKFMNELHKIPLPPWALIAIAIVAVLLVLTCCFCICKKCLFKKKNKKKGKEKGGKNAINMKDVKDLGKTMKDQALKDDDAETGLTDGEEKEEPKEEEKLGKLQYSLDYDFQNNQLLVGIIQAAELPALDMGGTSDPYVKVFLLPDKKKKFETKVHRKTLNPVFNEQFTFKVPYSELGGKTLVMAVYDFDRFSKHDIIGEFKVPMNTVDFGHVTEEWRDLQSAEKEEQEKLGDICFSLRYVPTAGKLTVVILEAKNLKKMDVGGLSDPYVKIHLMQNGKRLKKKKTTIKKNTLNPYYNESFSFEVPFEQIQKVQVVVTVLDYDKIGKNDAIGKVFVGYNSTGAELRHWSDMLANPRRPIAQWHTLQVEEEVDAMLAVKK
T1 sequence (P46096 whole entry): as the sequence (P21707 whole entry) above, with H6R counted along it

B1: NbLumSyt1 fused to a GFP-tag (VHH)
VHH: EVQLVESGGGLVQTGGSLRLSCTASGSIGSISVMGWYRQVPGTQYELVAGISRGGSTWYEDSVKGRFTISRDNAKNTLYLQMNSLKPEDTGMYYCAGGDYSDRLGSWGQGTQVTVSS
notes: as the VHH of m1: NbLumSyt1, clone 1F12; PDB 8B8I chain A; Held on GFP Selector beads in the immunoprecipitation; detected with anti-GFP in the uptake assay; also called GFP tagged Nanobody; GFP-tagged nanobody; source: E. coli NEB SHuffle Express T7, purified (Ni-NTA, protease elution, MonoQ)
In the case of B1, the binding result in assay [1] is on record as “binds”.

B2: NbLumSyt1-pHluorin (VHH)
VHH: B1 VHH
notes: as the VHH of m1: NbLumSyt1, clone 1F12; PDB 8B8I chain A; Detected with anti-GFP after fixation in the human neuron uptake; also called pHluorin-labelled Syt1 nanobody; Syt1 pHluorin Nb; source: E. coli NEB SHuffle Express T7, purified (Ni-NTA, protease elution, MonoQ)
As to B2, in assay [2], the binding result is recorded as “binds”.

B3: NbLumSyt1-APEX2 (VHH)
VHH: B1 VHH
notes: as the VHH of m1: NbLumSyt1, clone 1F12; PDB 8B8I chain A; also called Nb-APEX2
For the molecule B3, the binding result in assay [3] is recorded as “binds”.

(Values after publication doi:10.1101/2025.04.16.649111, “Nanobinders for Synaptotagmin 1 enable the analysis of synaptic vesicle dynamics in rodent and human models” (bioRxiv, 2025).)
